Data from US9096650B2, “Cyclic oligopeptides for binding to a target ligand” (LEXCICON LIMITED, priority 2006, dated 2015).
Bridges are numbered along the chain shown (N, C = ends). [ ]: non-standard residue; d: D form. Gly(decyl) = CCCCCCCCCC[C@H](N)C(=O)O

How the values were obtained:
[1] = tested on: J774-1 cells (a macrophage cell line); assay: Suppression of TNF secretion stimulated by LPS in a macrophage cell line, varying epitope order and stereochemistry of associating amino acids (Example 3); type: cell-based; conditions: peptide 50 ug/ml; LPS 1.25 ug/ml; LPS alone 1861.9
Procedure: • 1. Cyclic octapeptides were prepared with the following structures: cyclo(-DF-S-ΣL-R-DF-S-ΣL-R-) cyclo(-DF-S-ΣL-R-DF-S-ΣD-R-) cyclo(-DF-S-ΣD-R-DF-S-ΣD-R-) cyclo(-DF-R-ΣL-S-DF-R-ΣL-S-) cyclo(-DF-R-ΣL-S-DF-R-ΣD-S-) cyclo(-DF-R-ΣD-S-DF-R-ΣD-S-) wherein F, S and R are the epitope-forming amino acids, ΣL represents an associating amino acid which is an L-alpha aminocarboxylic acid in which the associating functional group is a side-chain residue consisting of an unbranched —C10H21; ΣD represents an associating amino acid which is a D-alpha aminocarboxylic acid in which the associating functional group is a side-chain residue consisting an unbranched —C10H21. These cyclic oligopeptides were prepared as solutions in distilled water at a concentration of 1 mg/ml. • 2. J774-1 cells (a macrophage cell line) were plated out in all the wells of a 24-well cluster plates at a seeding density of 3×10^5 cells/ml/well (1 ml RPMI 1640 culture medium per well), and incubated overnight at 37° C. in 5% CO2/air. • 3. The following day, the solutions from step 1 were administered to eighteen wells containing cells in step 2, to give three wells each with a final concentration of 50 ug/ml. The remaining wells were left untreated. The plate was incubated for a further four hours at 37 degC. • 4. Lipopolysaccharide (from E. coli strain 0111 B4) was added to the wells receiving the octapeptide solutions, as well as three of the wells receiving no peptide. The concentration of lipopolysaccharide was 1.25 ug/ml. • 5. The plate was incubated overnight, and the following day the supernatants were assayed for TNF using a commercial ELISA kit.

thrombin [2] = target: thrombin (Homo sapiens, UniProt P00734); assay: Inhibition of enzyme activity of thrombin, fluorogenic substrate (Example 7); type: biochemical
Procedure: 1. Cyclic oligopeptides of the following structures were synthesised as previously described, and prepared in complexed form with cyclodextrin at concentration of 1 mg/ml on Hanks Balanced Salts Solution using the procedure outlined in example 6. (i) cyclo(-R-E-Σ-S-R-E-R-Σ-S-E-) (ii) cyclo(-A-K-ΣE-Y-K-A-ΣY-E-) (iii) cyclo(-dF-R-C-S-dF-R-C-S-) (iv) cyclo(-dF-S-C-R-dF-S-C-R-)
2. In wells of a […] microplate, 20 ul of thrombin solution (0.01 mg/ml) were dispensed, and mixed with 60 ul of cyclic oligopeptide solution
3. 20 ul of the substrate boc-beta-benzyl-Asp-Pro-Arg-7-amido-4-methylcoumarin hydrochloride (0.01 mg/ml) was added to each well, and the time course of generation of […] was measured.

[3] = tested on: J774A.1 cells (a macrophage cell line); assay: Suppression of LPS-stimulated TNF secretion by cyclic oligopeptides containing two different epitopes (Example 8); type: cell-based; conditions: LPS 0.1 ug/ml
Procedure: • 1. Two cyclic oligopeptides were prepared with the following structures: (i) cyclo(-dF-S-Σ-Q-dL-S-Σ-R-) • and (ii) cyclo(-dF-S-Σ-L-dQ-S-Σ-R) • All amino acids are in the L form unless indicated otherwise. • All amino acids are linked by peptide bonds. wherein Q, L, S, R and F represent the epitope-forming amino acids and Σ represents the associating functional group borne on the associating amino acid wherein the associating amino acid is an L-alpha aminocarboxylic acid and the associating functional group is a side-chain residue consisting of a straight aliphatic chain containing ten carbon atoms.
These cyclic oligopeptides were prepared as solutions in transcutol/cyclodextrin, as described in example 4, to give a final concentration of peptide of 1 mg/ml, and cyclodextrin at 20 mg/ml. • 2. J774A.1 cells (a macrophage cell line) were plated out in all the wells of three 24-well cluster plates at a seeding density of 3×10^5 cells/ml/well (1 ml RPMI 1640 culture medium per well), and incubated overnight at 37° C. in 5% CO2/air. • 3. The following day, the solutions from step 1 were administered to wells containing cells in step 2, to give three wells each with a final concentration of 50, 25, 12.5, 6.25 or 3.125 ug/ml of cyclic oligopeptide. Additional wells containing cyclodextrin at 1, 0.5, 0.25, 0.125 and 0.0625 mg/ml were also prepared. The remaining wells were left untreated. The plate was incubated for a further four hours at 37 degC. • 4. Lipopolysaccharide (from E. coli strain 0111 B4) was added to the wells receiving the octapeptide solution, as well as three of the wells receiving no peptide. The final concentration of lipopolysaccharide was 0.1 ug/ml. • 5. The plate was incubated overnight, and the following day the supernatants were assayed for TNF using a commercial ELISA kit.

thrombin [4] = assay: cell-based or functional assay
[5] = time 2.0 minutes, enzyme alone 770.9, lower = more inhibition
[6] = time 5.0 minutes, enzyme alone 1821.1
[7] = time 10.0 minutes, enzyme alone 2163.5
[8] = time 15.0 minutes, enzyme alone 2253.2
[9] = time 20.0 minutes, enzyme alone 2345.8
[10] = time 25.0 minutes, enzyme alone 2359.0

| Molecule | Inhibition of Thrombin proteolytic activity (Fluorescence Units - Arbitrary Units) at 2.0 minutes; control (enzyme alone) 770.9 (Fluorescence Units - Arbitrary Units) (thrombin [4]) | Inhibition of Thrombin proteolytic activity (Fluorescence Units - Arbitrary Units) at 5.0 minutes; control (enzyme alone) 1821.1 (Fluorescence Units - Arbitrary Units) (thrombin [4]) | Inhibition of Thrombin proteolytic activity (Fluorescence Units - Arbitrary Units) at 10.0 minutes; control (enzyme alone) 2163.5 (Fluorescence Units - Arbitrary Units) (thrombin [4]) | Inhibition of Thrombin proteolytic activity (Fluorescence Units - Arbitrary Units) at 15.0 minutes; control (enzyme alone) 2253.2 (Fluorescence Units - Arbitrary Units) (thrombin [4]) | Inhibition of Thrombin proteolytic activity (Fluorescence Units - Arbitrary Units) at 20.0 minutes; control (enzyme alone) 2345.8 (Fluorescence Units - Arbitrary Units) (thrombin [4]) | Inhibition of Thrombin proteolytic activity (Fluorescence Units - Arbitrary Units) at 25.0 minutes; control (enzyme alone) 2359.0 (Fluorescence Units - Arbitrary Units) (thrombin [4]) | Concentration of TNF [1] | further results |
| --- | --- | --- | --- | --- | --- | --- | --- | --- |
| cyclo(-DF-R-ΣD-S-DF-R-ΣD-S-) |  |  |  |  |  |  | 1573.3 pg/mL |  |
| cyclo(-DF-R-ΣL-S-DF-R-ΣD-S-) |  |  |  |  |  |  | 1625.2 pg/mL |  |
| cyclo(-DF-R-ΣL-S-DF-R-ΣL-S-) |  |  |  |  |  |  | 1990.4 pg/mL |  |
| cyclo(-DF-S-ΣD-R-DF-S-ΣD-R-) |  |  |  |  |  |  | 1438.0 pg/mL |  |
| cyclo(-DF-S-ΣL-R-DF-S-ΣD-R-) |  |  |  |  |  |  | 987.1 pg/mL |  |
| cyclo(-dF-R-C-S-dF-R-C-S-) (cyclo([dF]RCS[dF]RCS); disulfide 3-7; SMILES N=C(N)NCCC[C@@H]1NC(=O)[C@@H](Cc2ccccc2)NC(=O)[C@H](CO)NC(=O)[C@@H]2CSSC[C@H](NC1=O)C(=O)N[C@@H](CO)C(=O)N[C@H](Cc1ccccc1)C(=O)N[C@@H](CCCNC(=N)N)C(=O)N2) [Example 7 (iii), cysteines in the ring are oxidised to form an internal bridge] |  |  |  |  |  |  |  | Thrombin proteolytic activity (Fluorescence Units - Arbitrary Units) (thrombin [2]; [5]): 634.5 Arbitrary Units; Thrombin proteolytic activity (Fluorescence Units - Arbitrary Units) (thrombin [2]; [6]): 1368.8 Arbitrary Units; Thrombin proteolytic activity (Fluorescence Units - Arbitrary Units) (thrombin [2]; [7]): 1786.9 Arbitrary Units; Thrombin proteolytic activity (Fluorescence Units - Arbitrary Units) (thrombin [2]; [8]): 1980.7 Arbitrary Units; Thrombin proteolytic activity (Fluorescence Units - Arbitrary Units) (thrombin [2]; [9]): 2107.4 Arbitrary Units; Thrombin proteolytic activity (Fluorescence Units - Arbitrary Units) (thrombin [2]; [10]): 2159.7 Arbitrary Units |
| cyclo(-dF-S-C-R-dF-S-C-R-) (cyclo([dF]SCR[dF]SCR); disulfide 3-7; SMILES N=C(N)NCCC[C@@H]1NC(=O)[C@@H]2CSSC[C@H](NC(=O)[C@H](CO)NC(=O)[C@@H](Cc3ccccc3)NC1=O)C(=O)N[C@@H](CCCNC(=N)N)C(=O)N[C@H](Cc1ccccc1)C(=O)N[C@@H](CO)C(=O)N2) [Example 7 (iv), cysteines in the ring are oxidised to form an internal bridge] |  |  |  |  |  |  |  | Thrombin proteolytic activity (Fluorescence Units - Arbitrary Units) (thrombin [2]; [5]): 523.2 Arbitrary Units; Thrombin proteolytic activity (Fluorescence Units - Arbitrary Units) (thrombin [2]; [6]): 1205.3 Arbitrary Units; Thrombin proteolytic activity (Fluorescence Units - Arbitrary Units) (thrombin [2]; [7]): 1586.9 Arbitrary Units; Thrombin proteolytic activity (Fluorescence Units - Arbitrary Units) (thrombin [2]; [8]): 1751.7 Arbitrary Units; Thrombin proteolytic activity (Fluorescence Units - Arbitrary Units) (thrombin [2]; [9]): 1843.1 Arbitrary Units; Thrombin proteolytic activity (Fluorescence Units - Arbitrary Units) (thrombin [2]; [10]): 1864.8 Arbitrary Units |
| cyclo(-dF-S-Σ-L-dQ-S-Σ-R) [Example 8 (ii)] |  |  |  |  |  |  |  | Thrombin proteolytic activity (Fluorescence Units - Arbitrary Units) (thrombin [2]; [5]): 410.8 Arbitrary Units; Thrombin proteolytic activity (Fluorescence Units - Arbitrary Units) (thrombin [2]; [6]): 816.4 Arbitrary Units; Thrombin proteolytic activity (Fluorescence Units - Arbitrary Units) (thrombin [2]; [7]): 1189.4 Arbitrary Units; Thrombin proteolytic activity (Fluorescence Units - Arbitrary Units) (thrombin [2]; [8]): 1398.6 Arbitrary Units; Thrombin proteolytic activity (Fluorescence Units - Arbitrary Units) (thrombin [2]; [9]): 1592.1 Arbitrary Units; Thrombin proteolytic activity (Fluorescence Units - Arbitrary Units) (thrombin [2]; [10]): 1673.2 Arbitrary Units; TNF concentration ([3]; peptide 3.125 ug/ml, 2856 = maximum detectable limit): 2648 ± 43 pg/mL; TNF concentration ([3]; peptide 6.25 ug/ml): 2325 ± 67 pg/mL; TNF concentration ([3]; peptide 12.5 ug/ml): 1748 ± 20 pg/mL; TNF concentration ([3]; peptide 25 ug/ml): 1437 ± 85 pg/mL; TNF concentration ([3]; peptide 50 ug/ml): 1081 ± 142 pg/mL |
| cyclo(AK[Gly(decyl)]EYKA[Gly(decyl)]YE) (SMILES CCCCCCCCCC[C@@H]1NC(=O)[C@H](C)NC(=O)[C@H](CCCCN)NC(=O)[C@H](Cc2ccc(O)cc2)NC(=O)[C@H](CCC(=O)O)NC(=O)[C@H](CCCCCCCCCC)NC(=O)[C@H](CCCCN)NC(=O)[C@H](C)NC(=O)[C@H](CCC(=O)O)NC(=O)[C@H](Cc2ccc(O)cc2)NC1=O) [cyclo(-A-K-ΣE-Y-K-A-ΣY-E-)] | 411 | 816 | 1190 | 1400 | 1590 | 1670 |  |  |

Now from value to molecule, other results behind:

| Inhibition of Thrombin proteolytic activity (Fluorescence Units - Arbitrary Units) at 2.0 minutes; control (enzyme alone) 770.9 (Fluorescence Units - Arbitrary Units) (thrombin [4]) | Inhibition of Thrombin proteolytic activity (Fluorescence Units - Arbitrary Units) at 5.0 minutes; control (enzyme alone) 1821.1 (Fluorescence Units - Arbitrary Units) (thrombin [4]) | Inhibition of Thrombin proteolytic activity (Fluorescence Units - Arbitrary Units) at 10.0 minutes; control (enzyme alone) 2163.5 (Fluorescence Units - Arbitrary Units) (thrombin [4]) | Inhibition of Thrombin proteolytic activity (Fluorescence Units - Arbitrary Units) at 15.0 minutes; control (enzyme alone) 2253.2 (Fluorescence Units - Arbitrary Units) (thrombin [4]) | Inhibition of Thrombin proteolytic activity (Fluorescence Units - Arbitrary Units) at 20.0 minutes; control (enzyme alone) 2345.8 (Fluorescence Units - Arbitrary Units) (thrombin [4]) | Inhibition of Thrombin proteolytic activity (Fluorescence Units - Arbitrary Units) at 25.0 minutes; control (enzyme alone) 2359.0 (Fluorescence Units - Arbitrary Units) (thrombin [4]) | Molecule | Concentration of TNF [1] | further results |
| --- | --- | --- | --- | --- | --- | --- | --- | --- |
| 411 | 816 | 1190 | 1400 | 1590 | 1670 | cyclo(RE[Gly(decyl)]SRER[Gly(decyl)]SE) (SMILES CCCCCCCCCC[C@@H]1NC(=O)[C@H](CCCNC(=N)N)NC(=O)[C@H](CCC(=O)O)NC(=O)[C@H](CCCNC(=N)N)NC(=O)[C@H](CO)NC(=O)[C@H](CCCCCCCCCC)NC(=O)[C@H](CCC(=O)O)NC(=O)[C@H](CCCNC(=N)N)NC(=O)[C@H](CCC(=O)O)NC(=O)[C@H](CO)NC1=O) [cyclo(-R-E-Σ-S-R-E-R-Σ-S-E-)] |  |  |
| 523 | 1210 | 1590 | 1750 | 1840 | 1860 | cyclo([dF]SCR[dF]SCR) (disulfide 3-7; SMILES N=C(N)NCCC[C@@H]1NC(=O)[C@@H]2CSSC[C@H](NC(=O)[C@H](CO)NC(=O)[C@@H](Cc3ccccc3)NC1=O)C(=O)N[C@@H](CCCNC(=N)N)C(=O)N[C@H](Cc1ccccc1)C(=O)N[C@@H](CO)C(=O)N2) [cyclo(-dF-S-C-R-dF-S-C-R-)] |  |  |
| 634 | 1370 | 1790 | 1980 | 2110 | 2160 | cyclo([dF]RCS[dF]RCS) (disulfide 3-7; SMILES N=C(N)NCCC[C@@H]1NC(=O)[C@@H](Cc2ccccc2)NC(=O)[C@H](CO)NC(=O)[C@@H]2CSSC[C@H](NC1=O)C(=O)N[C@@H](CO)C(=O)N[C@H](Cc1ccccc1)C(=O)N[C@@H](CCCNC(=N)N)C(=O)N2) [cyclo(-dF-R-C-S-dF-R-C-S-)] |  |  |
